Reference: IntAct's records for PubMed 32514408

B1: TNF receptor-associated factor 3 (Homo sapiens), Q13114 (parent)
chain: MESSKKMDSPGALQTNPPLKLHTDRSAGTPVFVPEQGGYKEKFVKTVEDKYKCEKCHLVLCSPKQTECGHRFCESCMAALLSSSSPKCTACQESIVKDKVFKDNCCKREILALQIYCRNESRGCAEQLMLGHLLVHLKNDCHFEELPCVRPDCKEKVLRKDLRDHVEKACKYREATCSHCKSQVPMIALQKHEDTDCPCVVVSCPHKCSVQTLLRSELSAHLSECVNAPSTCSFKRYGCVFQGTNQQIKAHEASSAVQHVNLLKEWSNSLEKKVSLLQNESVEKNKSIQSLHNQICSFEIEIERQKEMLRNNESKILHLQRVIDSQAEKLKELDKEIRPFRQNWEEADSMKSSVESLQNRVTELESVDKSAGQVARNTGLLESQLSRHDQMLSVHDIRLADMDLRFQVLETASYNGVLIWKIRDYKRRKQEAVMGKTLSLYSQPFYTGYFGYKMCARVYLNGDGMGKGTHLSLFFVIMRGEYDALLPWPFKQKVTLMLMDQGSSRRHLGDAFKPDPNSSSFKKPTGEMNIASGCPVFVAQTVLENGTYIKDDTIFIKVIVDTSDLPDP
partner: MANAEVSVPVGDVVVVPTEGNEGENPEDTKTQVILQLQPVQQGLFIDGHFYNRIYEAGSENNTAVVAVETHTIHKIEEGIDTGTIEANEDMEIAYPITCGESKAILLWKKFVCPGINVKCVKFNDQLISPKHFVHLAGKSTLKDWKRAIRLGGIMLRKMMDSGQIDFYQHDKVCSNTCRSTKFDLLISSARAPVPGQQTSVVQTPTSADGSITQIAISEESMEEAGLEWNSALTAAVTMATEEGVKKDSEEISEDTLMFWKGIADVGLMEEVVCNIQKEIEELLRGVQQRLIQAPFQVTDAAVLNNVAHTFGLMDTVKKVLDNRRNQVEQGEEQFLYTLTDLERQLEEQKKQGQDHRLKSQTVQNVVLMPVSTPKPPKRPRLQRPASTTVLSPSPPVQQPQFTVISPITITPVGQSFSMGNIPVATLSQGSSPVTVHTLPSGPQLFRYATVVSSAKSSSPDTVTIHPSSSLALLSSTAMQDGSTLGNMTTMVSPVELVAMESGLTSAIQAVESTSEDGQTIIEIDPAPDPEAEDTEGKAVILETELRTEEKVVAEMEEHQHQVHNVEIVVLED

Variants of: B1
Details: with gmeb1_human GMEB1, Q9Y692

| effect of a mutation on the interaction | Variant |
| --- | --- |
| with no effect | MESSKKMDSPGALQTNPPLKLHTDRSAGTPVFVPEQGGYKEKFVKTVEDKYKAEKAHLVLCSPKQTECGHRFCESCMAALLSSSSPKCTACQESIVKDKVFKDNCCKREILALQIYCRNESRGCAEQLMLGHLLVHLKNDCHFEELPCVRPDCKEKVLRKDLRDHVEKACKYREATCSHCKSQVPMIALQKHEDTDCPCVVVSCPHKCSVQTLLRSELSAHLSECVNAPSTCSFKRYGCVFQGTNQQIKAHEASSAVQHVNLLKEWSNSLEKKVSLLQNESVEKNKSIQSLHNQICSFEIEIERQKEMLRNNESKILHLQRVIDSQAEKLKELDKEIRPFRQNWEEADSMKSSVESLQNRVTELESVDKSAGQVARNTGLLESQLSRHDQMLSVHDIRLADMDLRFQVLETASYNGVLIWKIRDYKRRKQEAVMGKTLSLYSQPFYTGYFGYKMCARVYLNGDGMGKGTHLSLFFVIMRGEYDALLPWPFKQKVTLMLMDQGSSRRHLGDAFKPDPNSSSFKKPTGEMNIASGCPVFVAQTVLENGTYIKDDTIFIKVIVDTSDLPDP [C53A;C56A] |
